Laboratory results taken from US20250152729A1 (CANCER RESEARCH TECHNOLOGY, published 2025).

Tests used:
[1] = molecular target: T1, human SEMA4A expressed on cells (UniProt ID Q9H3S1, isoform 1) (human, UniProt Q9H3S1 33-761); test: Mirrorball direct binding, dilution series on expi293 cells transiently transfected with human SEMA4A, anti-human Alexa Fluor 647
T1 construct: Cell-surface SEMA4A: endogenous on MM.1S, NCI-H929 and Karpas-25 cells, or expi293 cells transfected with Origene SC323738; also called human Semaphorin4A; SEMA4A endogenously expressed on MM.1S cells
T1 sequence: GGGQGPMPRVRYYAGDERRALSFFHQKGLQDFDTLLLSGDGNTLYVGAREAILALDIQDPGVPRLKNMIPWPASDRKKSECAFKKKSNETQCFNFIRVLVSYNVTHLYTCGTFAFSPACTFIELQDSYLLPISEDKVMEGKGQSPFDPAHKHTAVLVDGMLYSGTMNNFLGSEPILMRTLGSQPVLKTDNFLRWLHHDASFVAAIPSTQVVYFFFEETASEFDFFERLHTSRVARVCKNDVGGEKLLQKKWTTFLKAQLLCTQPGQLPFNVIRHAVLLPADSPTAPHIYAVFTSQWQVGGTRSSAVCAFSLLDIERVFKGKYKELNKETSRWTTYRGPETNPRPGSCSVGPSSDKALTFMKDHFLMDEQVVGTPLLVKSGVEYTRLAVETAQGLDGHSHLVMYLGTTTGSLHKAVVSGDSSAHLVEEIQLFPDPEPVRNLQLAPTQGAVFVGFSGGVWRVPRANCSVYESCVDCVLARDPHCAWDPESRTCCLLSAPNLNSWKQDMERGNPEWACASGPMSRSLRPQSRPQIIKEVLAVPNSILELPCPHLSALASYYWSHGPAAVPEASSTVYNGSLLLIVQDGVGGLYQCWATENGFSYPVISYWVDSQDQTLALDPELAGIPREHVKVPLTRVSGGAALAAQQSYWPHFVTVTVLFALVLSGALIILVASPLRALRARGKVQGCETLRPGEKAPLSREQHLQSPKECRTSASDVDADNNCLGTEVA
Excerpt: (§1) Hits from the primary screening were re-formatted into the human Alya IgG1 vector and re-expressed and purified as described in section 4.1. In addition, a single clone was identified that contained an Asparagine deamidation motif (Asn Gly) within its VHCDR2. This potential sequence liability was de-risked by synthesising de novo two clonal variant VH genes (Asn Ala and Gln Gly) and cloning these sequences into the human Alya IgG1 expression vector. To determine the specificity profile of each purified human Alya IgG1, a dilution series was tested for binding to human SEMA4A, mouse SEMA4A, cyno SEMA4A, human SEMA4B and mock transfected cells (transient transfections set up in expi 293 cells.) The five assays employed methods described in section 2.3, using the appropriate cells and substituting the un-purified scFv periplasmic preparation with the recombinant human Alya IgG1 dilution series. Data was analysed as Count x median mean intensity (x FLU).

[2] = molecular target: T2, mouse SEMA4A expressed on expi293 cells (UniProt ID Q62178) (mouse, UniProt Q62178 33-760); test: Mirrorball direct binding, dilution series on expi293 cells transiently transfected with mouse SEMA4A, anti-human Alexa Fluor 647
T2 construct: Transient transfection in expi293 cells
T2 sequence: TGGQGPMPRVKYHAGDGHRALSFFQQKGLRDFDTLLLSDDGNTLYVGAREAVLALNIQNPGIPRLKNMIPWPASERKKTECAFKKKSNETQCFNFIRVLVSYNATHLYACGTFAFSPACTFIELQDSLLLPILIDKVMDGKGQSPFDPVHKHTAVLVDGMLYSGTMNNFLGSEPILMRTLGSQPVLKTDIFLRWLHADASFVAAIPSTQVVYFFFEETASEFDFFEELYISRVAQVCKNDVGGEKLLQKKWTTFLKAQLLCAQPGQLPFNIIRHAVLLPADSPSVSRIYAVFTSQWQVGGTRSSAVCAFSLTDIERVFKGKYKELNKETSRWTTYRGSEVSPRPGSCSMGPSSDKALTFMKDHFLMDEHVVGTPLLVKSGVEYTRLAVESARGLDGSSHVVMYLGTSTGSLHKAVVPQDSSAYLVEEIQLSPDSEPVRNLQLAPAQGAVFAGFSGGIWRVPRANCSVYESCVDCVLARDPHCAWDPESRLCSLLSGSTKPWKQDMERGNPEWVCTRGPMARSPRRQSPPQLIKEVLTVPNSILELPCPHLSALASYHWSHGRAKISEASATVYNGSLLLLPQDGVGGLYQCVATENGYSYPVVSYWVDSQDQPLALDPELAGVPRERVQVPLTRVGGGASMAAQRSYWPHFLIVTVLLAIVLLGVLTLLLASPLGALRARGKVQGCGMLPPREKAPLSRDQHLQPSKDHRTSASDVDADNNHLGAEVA
Excerpt: as §1

[3] = molecular target: T3, cynomolgus SEMA4A expressed on expi293 cells (UniProt ID G7NV79) (cynomolgus, UniProt Q9H3S1 33-761 (human entry)); test: Mirrorball direct binding, dilution series on expi293 cells transiently transfected with cynomolgus SEMA4A, anti-human Alexa Fluor 647
T3 construct: Transient transfection in expi293 cells; also called cyno SEMA4A
T3 chain: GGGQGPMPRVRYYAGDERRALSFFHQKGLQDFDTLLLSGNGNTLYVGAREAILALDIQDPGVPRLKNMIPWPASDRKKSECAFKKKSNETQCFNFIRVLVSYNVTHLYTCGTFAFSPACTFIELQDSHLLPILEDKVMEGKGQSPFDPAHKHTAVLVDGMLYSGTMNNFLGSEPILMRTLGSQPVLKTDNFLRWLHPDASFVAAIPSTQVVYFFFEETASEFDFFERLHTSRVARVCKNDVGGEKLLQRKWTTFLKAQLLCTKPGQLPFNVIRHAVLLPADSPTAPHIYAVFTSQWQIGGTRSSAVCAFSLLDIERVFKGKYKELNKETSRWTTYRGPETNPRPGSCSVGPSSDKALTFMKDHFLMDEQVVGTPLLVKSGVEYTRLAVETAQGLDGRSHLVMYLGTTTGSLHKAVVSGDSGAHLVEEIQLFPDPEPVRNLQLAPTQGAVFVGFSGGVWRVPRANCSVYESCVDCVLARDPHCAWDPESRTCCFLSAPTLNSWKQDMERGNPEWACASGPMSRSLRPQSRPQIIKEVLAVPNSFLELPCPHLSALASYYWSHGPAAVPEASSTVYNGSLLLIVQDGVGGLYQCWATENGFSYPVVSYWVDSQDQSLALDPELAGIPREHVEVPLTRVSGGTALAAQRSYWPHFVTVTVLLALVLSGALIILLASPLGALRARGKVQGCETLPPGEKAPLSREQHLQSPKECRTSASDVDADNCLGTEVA
Excerpt: as §1

[4] = molecular target: T4, human SEMA4B expressed on expi293 cells (human, UniProt Q9NPR2 44-837); test: Mirrorball direct binding, dilution series on expi293 cells transiently transfected with human SEMA4B, anti-human Alexa Fluor 647
T4 construct: whole, on cells
T4 sequence (looked up): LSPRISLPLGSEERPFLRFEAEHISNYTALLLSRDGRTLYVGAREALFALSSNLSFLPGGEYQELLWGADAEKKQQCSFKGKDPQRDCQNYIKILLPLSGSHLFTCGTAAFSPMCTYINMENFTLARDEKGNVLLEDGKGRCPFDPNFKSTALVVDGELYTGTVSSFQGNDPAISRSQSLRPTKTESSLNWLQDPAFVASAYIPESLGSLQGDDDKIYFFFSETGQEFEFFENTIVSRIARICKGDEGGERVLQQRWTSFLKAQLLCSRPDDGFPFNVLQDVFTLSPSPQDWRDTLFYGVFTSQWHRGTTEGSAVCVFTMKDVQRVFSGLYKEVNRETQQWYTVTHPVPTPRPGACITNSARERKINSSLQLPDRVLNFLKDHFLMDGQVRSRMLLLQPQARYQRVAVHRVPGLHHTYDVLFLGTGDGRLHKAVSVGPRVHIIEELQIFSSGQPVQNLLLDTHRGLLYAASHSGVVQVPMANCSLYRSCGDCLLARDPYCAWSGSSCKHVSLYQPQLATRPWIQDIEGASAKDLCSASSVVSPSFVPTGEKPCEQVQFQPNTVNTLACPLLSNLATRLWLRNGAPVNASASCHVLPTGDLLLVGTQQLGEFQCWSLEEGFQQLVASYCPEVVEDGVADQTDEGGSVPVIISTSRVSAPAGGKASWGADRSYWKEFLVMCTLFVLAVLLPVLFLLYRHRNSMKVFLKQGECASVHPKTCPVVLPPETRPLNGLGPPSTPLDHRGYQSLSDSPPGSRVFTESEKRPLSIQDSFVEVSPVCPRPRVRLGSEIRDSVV
Excerpt: as §1

Binder | binding result [1] | binding result [2] | binding result [3] | binding result [4]
C0120923 (antibody, V domains shown, 239iCys and S442C (EU numbering) in the constant region, one of the 6 germlined clones of m49; purified, unconjugated; also called C0120923 germlined human Alya IgG1) VH: not shown VL: NFMLTQPHSVSESPGKTVTISCTGSGGNIVDNFVQWHQQRPGSSPTTVIYEDDQRPSGVPDRFSASVDSSSNSGSLTISGLKTEDEADYYCQSYDGANRWVFGGGTKLTVL | binds | binds | binds | no binding (tested: log (M) -8 (1e-8 M))
C0120924 (antibody, V domains shown, 239iCys and S442C (EU numbering) in the constant region, one of the 6 germlined clones of m49; purified, unconjugated; also called C0120924 germlined human Alya IgG1) VH: QVQLVQSGAEVKKPGASVKVSCKASGYKLNDPGVHGVSWVRQAPGQGLEWMGWISTLNGDTRYAQKFQGRVTMTTDSSTSTIYMELRSLRSDDTAVYYCARDDYTAIFDFWGQGTLVTVSS VL: SSVLTQPPSVSVAPGQTARITCGGSNIGSQSVHWYQQKPGQAPVLVVYDDSDRPSGIPERFSGSKSGNTATLTISRVEAGDEADYYCQVWDSSTDHHVFGTGTKVTVL | binds | binds | binds | no binding (tested: log (M) -8 (1e-8 M))
C0120920 (antibody, V domains shown, 239iCys and S442C (EU numbering) in the constant region, purified, unconjugated; also called C0120920 human Alya IgG1 (unconjugated)) VH: EVQLVQSGPEVKKPGASVKISCKASGYKLNDPGVHGVSWVRQAPGQGLEWMGWISTLNADTRYAQKFQGRVTMATDSSTSTIYMDLRSLKSDDTALYYCARDDYTAIFDFWGRGTLVTVSS VL: QSVLTQPPSVSVAPGQTASITCGGSNIGSQSVHWYQQKPGQAPVLVVYDDSDRPSGIPERFSGSKSGNTASLILSRVEAGDEADYYCQVWDSSTDHHVFGTGTKVTVL | binds | binds |  | no binding (tested: log (M) -8 (1e-8 M))
C0120921 (antibody, V domains shown, 239iCys and S442C (EU numbering) in the constant region, purified, unconjugated; also called C0120921 human Alya IgG1 (unconjugated)) VH: EVQLVQSGPEVKKPGASVKISCKASGYKLNDPGVHGVSWVRQAPGQGLEWMGWISTLQGDTRYAQKFQGRVTMATDSSTSTIYMDLRSLKSDDTALYYCARDDYTAIFDFWGRGTLVTVSS VL: QSVLTQPPSVSVAPGQTASITCGGSNIGSQSVHWYQQKPGQAPVLVVYDDSDRPSGIPERFSGSKSGNTASLILSRVEAGDEADYYCQVWDSSTDHHVFGTGTKVTVL | binds | binds |  | no binding (tested: log (M) -8 (1e-8 M))
